Test results: publication PMC11820115

Target: GFP1-10 tagged with MCP, with nuclear localization sequences
Test: P3 editing (protein-protein proximity joins crRNA-MS2 and BoxB-petracrRNA; prime editing read by amplicon sequencing); HEK293T cells; 12 designs of crRNA-MS2/BoxB-petracrRNA that vary the upper 4 bp of the Cas9-binding region of the repeat:anti-repeat duplex; tagged split-GFP against standard untagged GFP as background; normalized to the eCTT control

normalized editing efficiency (GAUA:UAUC design): 3.8%
Substance: GFP11 tagged with LambdaN, with nuclear localization sequences (peptide)
